Our source for the FACS median fluorescence, binding result and EC50 values is patent publication US20200181261A1 (Bayer, published 2020).

Common to all, as to assay: FACS, transfected HeLa cells
Experiment [1] concerns the target T1, human CEACAM1, full-length, on transfected HeLa cells (human, UniProt P13688 35-526).
T1 construct: also called TPP-4185; HeLa human CEACAM1
T1 sequence: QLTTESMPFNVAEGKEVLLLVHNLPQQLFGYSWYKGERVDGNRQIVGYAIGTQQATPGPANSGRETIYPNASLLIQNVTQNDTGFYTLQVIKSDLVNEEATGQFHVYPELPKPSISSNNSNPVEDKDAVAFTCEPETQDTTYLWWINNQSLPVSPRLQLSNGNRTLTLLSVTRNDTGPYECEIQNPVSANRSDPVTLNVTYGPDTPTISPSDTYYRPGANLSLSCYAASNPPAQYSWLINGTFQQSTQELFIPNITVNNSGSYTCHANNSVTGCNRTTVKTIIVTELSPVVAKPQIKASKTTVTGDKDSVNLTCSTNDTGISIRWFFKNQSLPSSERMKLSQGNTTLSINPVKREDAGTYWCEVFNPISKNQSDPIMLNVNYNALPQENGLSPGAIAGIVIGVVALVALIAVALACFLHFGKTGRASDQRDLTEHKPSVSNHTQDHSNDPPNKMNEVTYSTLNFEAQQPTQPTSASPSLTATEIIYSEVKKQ
The method, then:
(§1) For FACS experiments HeLa wild type cells were cultured in RPMI-1640, 10% FCS, while CEACAM-receptor transfected HeLa cells received in addition 0.5% Gentamycin (stock 10 mg/ml, Fa. PAA) and 200 μg/ml Hygromycin B (stock 50 mg/ml, Invitrogen). Cells were washed 3 times with PBS w/o Ca²⁺/Mg²⁺ and were detached from the culture plate non-enzymatically with EDTA dissociation buffer (Gibco). Cells were washed in cold FACS buffer (PBS w/o Ca²⁺/Mg²⁺ and heat-inactivated 3% FCS) and were counted using a countess machine (Invitrogen). 10⁵ cells per well were plated and incubated with the respective primary antibody (5 μg/ml) for 1 h at 4° C. on a plate shaker. […] After 2 times washing the cells were resuspended in 100 μl FACS buffer and were analysed on a FACS Canto II machine (Beckton Dickinson) or a FACS Array (Beckton Dickinson).
(§2) For EC₅₀ analysis, the primary antibodies were used at increasing concentrations in a range from 0.1 nM to 100 nM. Half maximal binding values (EC₅₀) were determined by plotting the median fluorescence intensity signal against the concentration (logarithmic scale). Curve fitting of data was performed using the Graph Pad prism analysis software.

The target of experiment [2] is T2, human CEACAM8, full-length, on transfected HeLa cells (human, UniProt P31997 35-320).
T2 construct: also called TPP-4190; HeLa human CEACAM8
T2 sequence: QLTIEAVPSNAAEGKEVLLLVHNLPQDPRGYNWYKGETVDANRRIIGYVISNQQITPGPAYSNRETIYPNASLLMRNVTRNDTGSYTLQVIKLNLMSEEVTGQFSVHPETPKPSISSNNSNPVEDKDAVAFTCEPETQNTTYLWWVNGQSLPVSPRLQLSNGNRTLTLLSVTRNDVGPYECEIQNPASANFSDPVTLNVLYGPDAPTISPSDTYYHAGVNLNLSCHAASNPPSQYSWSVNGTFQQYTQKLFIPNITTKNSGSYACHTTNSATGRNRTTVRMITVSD
The method, then: as §1, §2

The target in experiment [3] is T3, Macaca fascicularis (cynomolgus) CEACAM6, full-length, on transfected HeLa cells (Macaca fascicularis, GPI anchor at the C-terminus on the cell surface, not carried by the letters).
T3 construct: also called TPP-4189; HeLa Cynomolgus CEACAM6
T3 chain: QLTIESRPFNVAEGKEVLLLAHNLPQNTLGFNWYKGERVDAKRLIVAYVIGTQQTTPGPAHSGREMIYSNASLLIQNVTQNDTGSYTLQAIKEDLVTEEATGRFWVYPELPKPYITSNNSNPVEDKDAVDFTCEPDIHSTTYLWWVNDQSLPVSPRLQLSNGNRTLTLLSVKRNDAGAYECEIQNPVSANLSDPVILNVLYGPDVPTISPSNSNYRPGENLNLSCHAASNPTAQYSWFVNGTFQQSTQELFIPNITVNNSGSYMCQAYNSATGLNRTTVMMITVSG
As to the method:
as §1, §2

Experiment [4] has as its target T4, human CEACAM5, full-length, on transfected HeLa cells (human, UniProt P06731 35-685, GPI anchor at the C-terminus on the cell surface, not carried by the letters).
T4 construct: also called TPP-4188; HeLa human CEACAM5
T4 sequence: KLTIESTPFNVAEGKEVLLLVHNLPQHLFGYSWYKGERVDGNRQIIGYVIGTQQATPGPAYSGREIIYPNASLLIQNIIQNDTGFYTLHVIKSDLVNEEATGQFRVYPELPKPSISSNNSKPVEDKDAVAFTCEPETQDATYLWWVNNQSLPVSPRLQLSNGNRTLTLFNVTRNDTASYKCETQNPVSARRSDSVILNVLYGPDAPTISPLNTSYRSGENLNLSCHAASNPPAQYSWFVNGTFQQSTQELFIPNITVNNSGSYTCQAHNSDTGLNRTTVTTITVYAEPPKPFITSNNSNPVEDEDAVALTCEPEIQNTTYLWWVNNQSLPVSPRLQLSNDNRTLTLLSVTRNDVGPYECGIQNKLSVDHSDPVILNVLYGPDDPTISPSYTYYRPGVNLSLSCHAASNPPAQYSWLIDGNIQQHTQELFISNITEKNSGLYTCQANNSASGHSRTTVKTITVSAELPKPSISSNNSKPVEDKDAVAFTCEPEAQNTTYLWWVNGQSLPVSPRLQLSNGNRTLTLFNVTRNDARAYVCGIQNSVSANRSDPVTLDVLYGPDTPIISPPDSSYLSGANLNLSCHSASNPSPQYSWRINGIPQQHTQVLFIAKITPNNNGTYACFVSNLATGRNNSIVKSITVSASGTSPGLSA
As to the method:
as §1, §2

Experiment [5] concerns the target T5, human CEACAM3, full-length, on transfected HeLa cells (human, UniProt P40198 35-252).
T5 construct: also called TPP-4187; HeLa human CEACAM3
T5 sequence: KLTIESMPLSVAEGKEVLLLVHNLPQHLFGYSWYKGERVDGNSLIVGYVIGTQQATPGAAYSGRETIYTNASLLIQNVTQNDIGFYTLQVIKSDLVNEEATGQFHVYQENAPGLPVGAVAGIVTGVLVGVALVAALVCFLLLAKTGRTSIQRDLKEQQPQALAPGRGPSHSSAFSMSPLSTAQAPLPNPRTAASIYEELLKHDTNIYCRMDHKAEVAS
As to the method: as §1, §2

B1: TPP-3707 (antibody, human IgG2, kappa, V domains shown)
VH: EVQLVESGGGLVQPGGSLRLSCAASGFTFSLYQMHWVRQAPGKGLEWVSWISFSGGNTGYADSVKGRFTISRDNSKNTLYLQMNSLRAEDTAVYYCARATGYSSPWYLDPWGQGTLVTVSS
VL: DIQMTQSPSSLSASVGDRVTITCQASHEIDNYLNWYQQKPGKAPKLLIYDAYWSKTGVPSRFSGSGSGTDFTLTISSLQPEDIATYYCQGYDDLSVTFGGGTKVDIKR
notes: also called 090E-M007-A09-Mat2-hIgG2-hIgG2Kappa
In the case of B1, in experiment [1], the FACS median fluorescence fell in the range of 10 to 100 medianfluorescence. The binding result in experiment [2] and in experiment [4] was “no binding (tested: 5 µg/ml)” in each case. In experiment [3], this molecule had an EC50 of 4 nM.

B2: TPP-2971 (antibody, mouse IgG1, V domains shown)
VH: QVTLKESGPGILQPSQTLSLTCSFSGFSLSTYGIGVGWIRQPSGKDLEWLAHIWWNDNKYYNTALKSRLTISKDTSNNQVFLKIASVDTADTATYYCARISLPYFDYWGQGTTLTVSS
VL: DIVMTQSQKFMSTSVGDRVSITCKASQNVGTAVAWYQQKPGQSPKLLIYSASNRYTGVPDRFTGSGSGTDFTLTISNMQSEDLADYFCQQYSSYPLTFGAGTKLELK
notes: murine hybridoma antibody, mouse IgG1; also called 792.15H12C9
In the case of B2, the binding result in experiment [5], in experiment [1], in experiment [2] and in experiment [4] was “no binding (tested: 5 µg/ml)” each time. In experiment [3], the midpoint of the response, the EC50, lay at 0.5 nM. The molecule also yielded an FACS median fluorescence in experiment [3] of 100 to 1000 medianfluorescence.

B3: TPP-3187 (antibody, mouse IgG1, V domains shown)
VH: QVTLKESGPGILQPSQTLSLTCSFSGFSLTTYGIGVGWIRQPSGKGLEWLAHIWWNDNKYYNTALKSRLTISKDTSNNQVFLKIASVDTADTATYYCARISLPYFDYWGQGTTLTVSS
VL: DIVMTQSQKFMSTSVGDRVSITCKASQNVGTAVAWYQQKPGQSPKLLIYSASNRYTGVPDRFTGSGSGTDFTLTISNMQSEDLADYFCQQYNNYPLTFGAGTKLELK
notes: murine hybridoma antibody, mouse IgG1; also called 792.15C4F4
B3: the binding result in experiment [5], in experiment [1], in experiment [2] and in experiment [4] was “no binding (tested: 5 µg/ml)” throughout. In experiment [3], a half-maximal response (EC50) required 4 nM. The molecule further yielded an FACS median fluorescence in experiment [3] of 100 to 1000 medianfluorescence.

B4: TPP-3821 (antibody, human IgG2, kappa, V domains shown)
VH: QVTLRESGPALVKPTQTLTLTCTFSGFSLSTYGIGVGWIRQPPGKALEWLAHIWWNDNKYYSTSLKTRLTISKDTSKNQVVLTMTNMDPVDTATYYCARISLPYFDYWGQGTLVTVSS
VL: DIQLTQSPSFLSASVGDRVTITCKASQNVGTAVAWYQQKPGKAPKLLIYSASNRYTGVPSRFSGSGSGTEFTLTISSLQPEDFATYYCQQYNNYPLTFGGGTKVEIKR
notes: humanized from TPP-3187, human IgG2; also called 3187HU2-hIgG2Kappa
B4: the binding result in experiment [5], in experiment [1], in experiment [2] and in experiment [4] was “no binding (tested: 5 µg/ml)” in each case. Besides, the EC50 in experiment [3] was found to be 1 nM.

B5: TPP-3820 (antibody, human IgG2, kappa, V domains shown)
VH: QVTLRESGPALVKPTQTLTLTCTFSGFSLTTYGIGVGWIRQPPGKGLEWLAHIWWNDNKYYSTSLKTRLTISKDTSKNQVVLTMTNMDPVDTATYYCARISLPYFDYWGQGTLVTVSS
VL: DIQLTQSPSFLSASVGDRVTITCKASQNVGTAVAWYQQKPGKAPKLLIYSASNRYTGVPSRFSGSGSGTEFTLTISSLQPEDFATYYCQQYNNYPLTFGGGTKVEIKR
notes: humanized from TPP-3187, human IgG2; also called 3187HU1-hIgG2Kappa
B5: the binding result in experiment [5], in experiment [1], in experiment [2] and in experiment [4] was “no binding (tested: 5 µg/ml)” throughout. The molecule further came in with an EC50 in experiment [3] of 1 nM.

B6: TPP-3310 (antibody, human IgG2, kappa)
heavy: QVTLRESGPALVKPTQTLTLTCTFSGFSLSTYGIGVGWIRQPPGKALEWLAHIWWNDNKYYSTSLKTRLTISKDTSKNQVVLTMTNMDPVDTATYYCARISLPYFDYWGQGTTLTVSSASTKGPSVFPLAPCSRSTSESTAALGCLVKDYFPEPVTVSWNSGALTSGVHTFPAVLQSSGLYSLSSVVTVPSSNFGTQTYTCNVDHKPSNTKVDKTVERKCCVECPPCPAPPVAGPSVFLFPPKPKDTLMISRTPEVTCVVVDVSHEDPEVQFNWYVDGVEVHNAKTKPREEQFNSTFRVVSVLTVVHQDWLNGKEYKCKVSNKGLPAPIEKTISKTKGQPREPQVYTLPPSREEMTKNQVSLTCLVKGFYPSDIAVEWESNGQPENNYKTTPPMLDSDGSFFLYSKLTVDKSRWQQGNVFSCSVMHEALHNHYTQKSLSLSPG
light: DIQLTQSPSFLSASVGDRVTITCKASQNVGTAVAWYQQKPGKAPKLLIYSASNRYTGVPSRFSGSGSGTEFTLTISSLQPEDFATYYCQQYSSYPLTFGGGTKVEIKRTVAAPSVFIFPPSDEQLKSGTASVVCLLNNFYPREAKVQWKVDNALQSGNSQESVTEQDSKDSTYSLSSTLTLSKADYEKHKVYACEVTHQGLSSPVTKSFNRGEC
notes: humanized from TPP-2971, human IgG2; also called TPP-2971HU1-hIgG2Kappa
Take B6: the binding result in experiment [5], in experiment [1], in experiment [2] and in experiment [4] was “no binding (tested: 5 µg/ml)” throughout. The same molecule showed an EC50 in experiment [3] of 1.5 nM.
